Laboratory results published in patent KR20160093503A (dated 2016).

Key:
[1] = target: T1, CRS (Cysteinyl-tRNA synthetase), purified recombinant antigen (human, UniProt P49589 1-748, limits assumed); assay: SPR (ProteOn XPR36), CRS amine-coupled on GLC chip, scFv 500-30 nM as analyte, 25 C
T1 construct: also called CRS 항원; 재조합 CRS 표준물질
T1 sequence (looked up): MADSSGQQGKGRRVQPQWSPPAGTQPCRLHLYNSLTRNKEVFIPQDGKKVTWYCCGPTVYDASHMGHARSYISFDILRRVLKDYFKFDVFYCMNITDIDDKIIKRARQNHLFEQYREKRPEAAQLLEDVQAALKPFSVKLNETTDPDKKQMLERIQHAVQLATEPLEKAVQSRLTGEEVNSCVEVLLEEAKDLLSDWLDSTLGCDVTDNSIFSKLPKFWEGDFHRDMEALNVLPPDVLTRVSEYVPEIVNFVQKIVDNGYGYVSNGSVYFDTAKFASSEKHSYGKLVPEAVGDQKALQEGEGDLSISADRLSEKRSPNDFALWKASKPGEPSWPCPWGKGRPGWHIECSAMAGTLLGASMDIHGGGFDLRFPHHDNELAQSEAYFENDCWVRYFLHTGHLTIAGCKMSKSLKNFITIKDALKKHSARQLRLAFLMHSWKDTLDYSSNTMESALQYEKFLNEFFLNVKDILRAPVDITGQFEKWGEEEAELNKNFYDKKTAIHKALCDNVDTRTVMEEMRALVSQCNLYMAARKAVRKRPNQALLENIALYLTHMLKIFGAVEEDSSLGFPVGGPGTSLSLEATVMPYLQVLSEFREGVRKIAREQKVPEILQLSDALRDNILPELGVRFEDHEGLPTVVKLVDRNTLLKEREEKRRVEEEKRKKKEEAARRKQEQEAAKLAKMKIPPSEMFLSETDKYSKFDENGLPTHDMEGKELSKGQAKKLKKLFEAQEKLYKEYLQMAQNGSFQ

[2] = target: T2, DRS (Aspartyl-tRNA synthetase), purified recombinant (UniProt P14868 1-501, limits assumed); assay: Luminex multiplex bead assay, antigen coupled to beads, relative to CRS
T2 construct: also called 아스파틸-tRNA 합성효소
T2 sequence (looked up): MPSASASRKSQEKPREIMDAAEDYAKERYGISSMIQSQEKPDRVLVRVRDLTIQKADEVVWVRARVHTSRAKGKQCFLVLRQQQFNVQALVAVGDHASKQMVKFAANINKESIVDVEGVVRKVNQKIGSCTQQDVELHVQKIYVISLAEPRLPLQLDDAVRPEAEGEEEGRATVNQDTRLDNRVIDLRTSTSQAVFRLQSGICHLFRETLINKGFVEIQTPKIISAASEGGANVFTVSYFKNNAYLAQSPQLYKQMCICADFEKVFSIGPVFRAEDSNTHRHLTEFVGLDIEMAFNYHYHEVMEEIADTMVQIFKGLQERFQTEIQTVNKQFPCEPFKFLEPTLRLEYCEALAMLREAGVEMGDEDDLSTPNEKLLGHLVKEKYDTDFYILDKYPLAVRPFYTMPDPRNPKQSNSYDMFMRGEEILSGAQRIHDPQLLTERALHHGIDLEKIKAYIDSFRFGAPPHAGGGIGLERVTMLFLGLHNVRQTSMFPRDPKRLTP

[3] = target: T3, AIMP3 (Aminoacyl-tRNA-synthetase-interacting multifunctional protein 3), purified recombinant (UniProt O43324 1-174, limits assumed); assay: as above
T3 construct: also called AIMP3(p18); p18
T3 sequence (looked up): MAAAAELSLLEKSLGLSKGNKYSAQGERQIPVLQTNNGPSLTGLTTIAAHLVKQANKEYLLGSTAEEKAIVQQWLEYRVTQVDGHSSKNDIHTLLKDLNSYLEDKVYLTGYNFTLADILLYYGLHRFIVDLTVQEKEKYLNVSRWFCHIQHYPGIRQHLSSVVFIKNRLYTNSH

[4] = target: T4, HRS (Histidyl-tRNA synthetase), purified recombinant (UniProt P12081 1-509, limits assumed); assay: as above
T4 construct: also called 히스티딜-tRNA 합성효소
T4 sequence (looked up): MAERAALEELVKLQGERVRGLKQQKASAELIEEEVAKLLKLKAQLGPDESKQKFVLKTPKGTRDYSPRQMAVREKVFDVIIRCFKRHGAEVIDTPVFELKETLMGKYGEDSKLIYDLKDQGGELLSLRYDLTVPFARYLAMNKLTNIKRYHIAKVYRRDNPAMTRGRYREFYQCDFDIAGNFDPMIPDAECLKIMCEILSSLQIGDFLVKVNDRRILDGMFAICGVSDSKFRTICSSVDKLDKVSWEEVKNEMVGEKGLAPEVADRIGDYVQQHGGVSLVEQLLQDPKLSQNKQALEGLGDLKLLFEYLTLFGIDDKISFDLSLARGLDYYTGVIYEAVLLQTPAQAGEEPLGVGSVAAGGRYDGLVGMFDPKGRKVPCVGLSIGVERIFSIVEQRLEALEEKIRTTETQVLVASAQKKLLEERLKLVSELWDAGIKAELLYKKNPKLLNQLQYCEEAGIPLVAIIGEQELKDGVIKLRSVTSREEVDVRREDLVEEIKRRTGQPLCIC

[5] = target: T5, WRS (Tryptophanyl-tRNA synthetase), purified recombinant (UniProt P23381 1-471, limits assumed); assay: as above
T5 construct: also called 트립토파닐-tRNA 합성효소
T5 sequence (looked up): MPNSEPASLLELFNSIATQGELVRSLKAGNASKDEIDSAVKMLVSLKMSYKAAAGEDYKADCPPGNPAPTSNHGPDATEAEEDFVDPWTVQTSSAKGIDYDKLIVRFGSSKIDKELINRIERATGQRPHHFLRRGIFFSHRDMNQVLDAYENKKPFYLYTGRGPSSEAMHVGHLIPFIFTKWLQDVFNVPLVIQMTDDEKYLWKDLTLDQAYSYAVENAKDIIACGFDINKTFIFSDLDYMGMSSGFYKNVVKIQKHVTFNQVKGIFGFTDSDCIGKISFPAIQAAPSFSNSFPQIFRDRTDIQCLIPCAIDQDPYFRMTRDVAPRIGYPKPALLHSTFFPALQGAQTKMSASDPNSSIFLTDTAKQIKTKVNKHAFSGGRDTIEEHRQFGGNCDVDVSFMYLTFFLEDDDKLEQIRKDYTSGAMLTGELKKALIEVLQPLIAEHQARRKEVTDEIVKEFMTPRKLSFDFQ

[6] = target: T6, EPRS WHEP domain (Glutamyl-prolyl tRNA synthetase), purified recombinant (UniProt P07814 749-956, limits assumed); assay: as above
T6 construct: domain: WHEP domain; also called 글루타밀-프로릴-tRNA 합성효소
T6 sequence (looked up): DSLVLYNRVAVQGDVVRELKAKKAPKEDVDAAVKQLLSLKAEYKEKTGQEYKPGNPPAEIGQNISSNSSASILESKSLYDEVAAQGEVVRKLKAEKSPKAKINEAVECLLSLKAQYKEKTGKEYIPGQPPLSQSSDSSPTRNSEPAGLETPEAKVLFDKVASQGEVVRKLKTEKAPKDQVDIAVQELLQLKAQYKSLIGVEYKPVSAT

[7] = target: T7, AIMP1 (Aminoacyl-tRNA-synthetase-interacting multifunctional protein 1), purified recombinant (UniProt Q12904 1-312, limits assumed); assay: as above
T7 construct: also called AIMP1(p43); p43
T7 sequence (looked up): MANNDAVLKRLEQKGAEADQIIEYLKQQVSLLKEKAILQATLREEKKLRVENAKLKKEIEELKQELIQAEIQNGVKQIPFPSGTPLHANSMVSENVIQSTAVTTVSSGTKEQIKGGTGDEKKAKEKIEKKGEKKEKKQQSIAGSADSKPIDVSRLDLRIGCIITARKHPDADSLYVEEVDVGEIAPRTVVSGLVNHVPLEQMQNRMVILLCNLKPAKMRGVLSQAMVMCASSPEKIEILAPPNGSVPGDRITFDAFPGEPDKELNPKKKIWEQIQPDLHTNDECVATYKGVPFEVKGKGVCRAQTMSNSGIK

B1: anti-CRS scFv Biocon-K1 (scFv)
scFv: EVQLLESGGGLVQPVGSLRLSCAASGFTFSNYAMSWVRQAPGKGLEWVSWIYSKGRSTYYGDSAKGRFTISRDNSKNTLYLQMNSLRAEDTAVYYCAKRDNAFDYWGQGTLVTVSSGGGGSGGGGSGGGGSQSVLTQPPSASGTPGQRVTISCSGSSSNIGNNYVYWYQQLPGTAPKLLIYADSQRPSGVPDRFSGSKSGTSASLAISGLRSEDEADYYCGAWDSSLNGYVFGGGTKLTVL
notes: It was expressed from pComb3X in the E. coli periplasm, purified on Ni-NTA and detected with anti-HA; Human VH3-23/VL1g framework; also called 항 CRS scFv 항체; 본 발명의 항체
60 nM: Kd [1]
≤ 10%: 교차 반응성 (cross-reactivity) [2] | 교차 반응성 (cross-reactivity) [3] | 교차 반응성 (cross-reactivity) [4] | 교차 반응성 (cross-reactivity) [5] | 교차 반응성 (cross-reactivity) [6] | 교차 반응성 (cross-reactivity) [7]
